Each block holds one molecule with its values, some of them ahead of it.
Assays:
[1] = target: mTRQ2-MpTGA (Marchantia polymorpha); assay: FRET or BRET; FRET-FLIM; 2in1 vector, donor mTRQ2 on MpTGA, acceptor mVENUS on MpROXY; 40 nuclei of N. benthamiana leaves; mono- or biexponential decay of the donor
MpROXY2 = target: T1, MpROXY2 (Marchantia polymorpha (ssp. ruderalis, …, UniProt A0A2R6WT88 1-179)); assay: EMSA; 0.9 mM DTT or 2 mM diamide; Redox EMSA per Gutsche & Zachgo 2016 (buffer, salt, pH, temperature not stated); 0.9 mM DTT (red) or 2 mM diamide (ox); 500 ng recombinant protein per reaction; native gel; conditions: tags: N-terminal MBP, label: 5' 6-FAM, blunt
T1 sequence: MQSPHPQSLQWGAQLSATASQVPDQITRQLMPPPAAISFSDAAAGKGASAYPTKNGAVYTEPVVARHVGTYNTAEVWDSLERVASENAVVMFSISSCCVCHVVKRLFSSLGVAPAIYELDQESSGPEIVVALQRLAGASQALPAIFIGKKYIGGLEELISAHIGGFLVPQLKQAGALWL

PAN (…);ROXY1 = target: T2, PAN (…);ROXY1 (Arabidopsis thaliana;Arabidopsis …, UniProt Q9SX27;Q96305 1-452;1-136, |); assay: EMSA supershift; Redox EMSA per Gutsche & Zachgo 2016 (buffer, salt, pH, temperature not stated); 0.9 mM DTT (red) or 2 mM diamide (ox); 500 ng recombinant protein per reaction; native gel; conditions: tags: N-terminal MBP (per Methods);MBP, label: 5' 6-FAM, blunt
T2 sequence 1: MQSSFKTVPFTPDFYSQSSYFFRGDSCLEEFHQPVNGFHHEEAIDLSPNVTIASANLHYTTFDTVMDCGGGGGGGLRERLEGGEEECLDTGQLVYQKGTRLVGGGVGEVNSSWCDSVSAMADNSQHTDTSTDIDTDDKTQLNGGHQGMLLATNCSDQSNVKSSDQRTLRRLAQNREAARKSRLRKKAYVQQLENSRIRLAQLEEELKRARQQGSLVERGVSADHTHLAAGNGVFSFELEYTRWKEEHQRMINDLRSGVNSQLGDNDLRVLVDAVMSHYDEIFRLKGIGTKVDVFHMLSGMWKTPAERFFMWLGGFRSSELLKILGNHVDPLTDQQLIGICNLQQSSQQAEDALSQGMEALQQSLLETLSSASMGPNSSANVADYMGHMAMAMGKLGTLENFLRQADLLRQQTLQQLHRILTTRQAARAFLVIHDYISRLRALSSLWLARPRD
T2 sequence 2: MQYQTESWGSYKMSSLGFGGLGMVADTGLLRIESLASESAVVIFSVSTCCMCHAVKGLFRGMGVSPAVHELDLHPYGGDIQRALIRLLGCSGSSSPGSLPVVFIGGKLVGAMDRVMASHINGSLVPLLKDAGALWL

PAN (…);MpROXY2 = target: T3, PAN (…);MpROXY2 (Arabidopsis thaliana;Marchantia …, UniProt Q9SX27;A0A2R6WT88 1-452;1-179, |); assay: as above; conditions: tags: N-terminal MBP (per Methods);N-terminal MBP, label: 5' 6-FAM, blunt
T3 sequence 1: T2 sequence 1
T3 sequence 2: T1 sequence

PAN (…) = target: T4, PAN (…) (Arabidopsis thaliana, UniProt Q9SX27 1-452); assay: EMSA; Redox EMSA per Gutsche & Zachgo 2016 (buffer, salt, pH, temperature not stated); 0.9 mM DTT (red) or 2 mM diamide (ox); 500 ng recombinant protein per reaction; native gel; conditions: tags: N-terminal MBP (per Methods), chain copies: 2, label: 5' 6-FAM, blunt
T4 sequence: T2 sequence 1

- reduced donor fluorescence lifetime (τDA) [1]: < 2 ns
Molecule: mVENUS-MpROXY2 (natural protein)

- reduced donor fluorescence lifetime (τDA) [1]: < 2 ns
Molecule: mVENUS-MpROXY1 (natural protein)

B1: as-1-like (dsDNA)
DNA 1: CTACGTCACTATTTTACTTACGTCATAG
DNA 2: CTATGACGTAAGTAAAATAGTGACGTAG
- binding result (MpROXY2): no binding
- binding result (PAN (…);ROXY1): binds
- binding result (PAN (…);MpROXY2): binds
- binding result (PAN (…)): binds
